From PMC10132618 come the findings set out here.

Data set [1] deals with T1, GST-Fob1 (prep also contains free Fob1) (Saccharomyces cerevisiae) (UniProt O13329).
T1 sequence: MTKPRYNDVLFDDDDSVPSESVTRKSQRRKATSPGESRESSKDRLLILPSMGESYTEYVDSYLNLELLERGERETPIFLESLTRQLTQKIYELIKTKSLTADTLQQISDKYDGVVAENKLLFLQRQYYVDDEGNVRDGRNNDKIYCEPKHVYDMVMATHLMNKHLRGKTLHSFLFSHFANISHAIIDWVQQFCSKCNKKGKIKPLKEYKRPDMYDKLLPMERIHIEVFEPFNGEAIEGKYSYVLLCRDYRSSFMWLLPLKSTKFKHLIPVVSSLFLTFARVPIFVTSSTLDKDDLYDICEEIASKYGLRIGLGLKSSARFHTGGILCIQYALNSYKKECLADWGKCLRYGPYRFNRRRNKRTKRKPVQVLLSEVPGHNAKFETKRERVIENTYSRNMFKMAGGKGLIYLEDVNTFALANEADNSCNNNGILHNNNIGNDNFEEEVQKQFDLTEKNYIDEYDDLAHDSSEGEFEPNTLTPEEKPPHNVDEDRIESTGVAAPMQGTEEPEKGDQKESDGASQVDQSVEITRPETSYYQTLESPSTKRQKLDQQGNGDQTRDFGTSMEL
The experiment in a line: competition. The following applies: 10 mM Tris pH 7.5, 1 mM EDTA, 0.1 M KCl, 0.1 mM DTT, 5% glycerol, 20 ul, 30 C 30 min; 6% PAGE in 0.5X TBE.

Data set [2] has as its target T1, GST-Fob1 (prep also contains free Fob1) (Saccharomyces cerevisiae). The data set can be described thus: EMSA. The following applies: 10 mM Tris pH 7.5, 1 mM EDTA, 0.1 M KCl, 0.1 mM DTT, 5% glycerol, 20 ul, 30 C 30 min; 6% PAGE in 0.5X TBE. For orientation: A gel shift assay detects complexes by their altered migration in electrophoresis.

Regarding “TGCTAGTGTTTGCAAGATGGTGCTTTTTTTTCTTTAGATTGCCACGTTTCTGCTCCT (double strand) [RDT1 promoter probe (57 bp)]”, the binding entry in data set [1] and in data set [2] was “binds” each time.
